{"source": "patent US20140234868A1", "about": "“USE FOR GLYCOLIPOPROTEIN GINTONIN, ISOLATED AND IDENTIFIED FROM GINSENG, AS A NATURAL MEDICAL-PLANT DERIVED LIGAND” (KONKUK UNIVERSITY INDUSTRIAL COOPERATION CORP., priority 2011, published 2014)", "molecules": {"B1": {"name": "gintonin: ginseng-derived glycolipoprotein; structural protein of ginseng major latex-like protein (MLP151) and ribonuclease-like storage proteins; crude gintonin used in tests (protein)", "chain 1": "MGLTGKLICQTGIKSDGDVFHELFGTRPHHVPNITPANIQGCDLHEGEFGKVGSVVIWNYSIDGNAMIAKEEIVAIDEEDKSVTFKVVEGHLFEEFKSIVFSVHVDTKGEDNLVTWSIDYEKLNESVKDPTSYLDFLLSVTRDIEAHHLPK", "chain 2": "RSDYPWAMFALRLQWPAGFCEVNNACDTKSLLNTFTIHGLYPYNAKGTPALYCDGTAFDVNSVSDFLAEMHLAWPSHETNTEDIQFWEHEWKKHGRCSEALLKQTDYFRTALAFRKAFDIVGLLNQEGIYPNNDLYRPKMIKEAIKKHLNAVPEIDFTKNENSEYVLTDINVCVNQQATRFVDCPTDDATDDYRLKFVRLPSKMKFADPRTNSII"}}, "key": {"NMDA receptor": {"system": "NMDA receptor", "test": "NMDA receptor activity in oocytes expressing active or inactive RPTP alpha", "assay_type": "cell-based", "conditions": "oocytes expressing active or inactive RPTP α", "description": "Two-electrode voltage-clamp recordings were obtained from individual oocytes placed in a small Plexiglas net chamber (5 ml). Electrophysiological experiments were performed using microelectrodes filled with 3 M KCl (resistance of 0.2-0.7 MΩ) and an Oocyte Clamp amplifier (OC-725C; Warner Instrument, Hamden, Conn.). For physiological recordings of NMDA receptor activity, oocytes were first perfused with Mg^2+-free ND96 (mM: 96 NaOH, 2 KOH, 0.3 CaCl2, 5 HEPES pH 7.6 with methanesulfonic acid). Then, the oocytes were clamped at −60 mV holding potential, followed by recoding NMDA currents (induced by administering […]) (Zheng et al., J Neurosci. 17, 8676-8686, 1997; Chang and Kuo, J Neurosci. 28, 1546-1556, 2008)."}, "HUVECs": {"system": "HUVECs", "test": "Scratch wound healing in HUVEC monolayers", "assay_type": "cell-based, human", "conditions": "gintonin 30 μg/ml, 20 hrs", "description": "In this Example, an examination was made of the effect of gintonin on wound healing. For use in this examination, HUVECs were cultured in an M199 medium supplemented with heat-inactivated 20% FBS, […] basic fibroblast growth factor, 5 units/ml heparin, and streptomycin and penicillin in a 5% […] incubator.\nHUVECs (2.5×10^5/well) were seeded to 24-well plates, and incubated for 24 hrs, and then for an additional 6 hrs in M199 supplemented with 1% FBS. Single wounds were made in the confluent monolayers by dragging a sterile 200-μl pipette tip across the monolayer to create a cell-free path. Floating cells were washed off twice with M199 supplemented with 1% FBS. The adherent cells were incubated with gintonin (30 μg/ml). Before and after treatment with gintonin, HUVECs in each well were observed and photographed (100×) using an inverted fluorescence microscope (AxioVert200; Carl Zeiss, Germany). Morphological comparison with non-treated cells was made.\nIn the assay for wound healing of gintonin, uncovered wound areas were measured using AxioVision 4 (Carl Zeiss, Germany) (FIG. 26A), and the time process of covering the scratch wound areas was monitored in the presence or absence of gintonin (FIG. 25B). In addition, uncovered scratch areas of gintonin-treated groups were compared with that of the control and expressed as % of that of the control (FIGS. 26C and D)."}, "LPA4 receptor": {"target": "LPA4 receptor (Homo sapiens, UniProt Q99677)", "sequence (Q99677 whole entry)": "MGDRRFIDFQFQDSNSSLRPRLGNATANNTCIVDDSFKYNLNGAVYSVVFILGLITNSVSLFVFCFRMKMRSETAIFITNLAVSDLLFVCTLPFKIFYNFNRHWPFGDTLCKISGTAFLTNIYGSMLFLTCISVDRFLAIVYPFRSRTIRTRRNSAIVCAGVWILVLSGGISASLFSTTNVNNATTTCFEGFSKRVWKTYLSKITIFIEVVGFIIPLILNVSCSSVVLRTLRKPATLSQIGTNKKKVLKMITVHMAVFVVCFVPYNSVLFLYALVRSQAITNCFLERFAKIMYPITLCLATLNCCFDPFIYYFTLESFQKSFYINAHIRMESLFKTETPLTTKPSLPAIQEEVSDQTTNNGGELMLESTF", "test": "Intracellular free Ca2+ (Fura-2AM) in LPA4-expressing B103 cells", "assay_type": "cell-based", "parameters": "host or cells: B103 rat neuroblastoma cells", "conditions": "gintonin", "excerpt": "LPA family receptors are endogenous to cells of most organs. B103 rat neuroblastoma cells, known as LPA receptor-null cells (Valentine et al., Biochim Biophys Acta 1780. 597-605) were transiently transfected with a plasmid (vector) carrying one of genes coding for LPA1(edg-2), LPA2(edg-4), LPA3(edg-7), LPA4, LPA5 and LPA6 receptors or a plasmid carrying none of them (empty vector). Two or three days after transfection, the cells are suspended, and made permeable. Then, the permeable cells are treated with Fura-2AM, a fluorescent dye binding to calcium, and then with gintonin, followed by spectrofluorephotometry to examine whether gintonin induces an increase in intracellular free Ca^2+ level. […]"}}}
{"molecule": "B1", "values": [{"measurement": "NMDA receptor activity when treated with gintonin", "setting": "NMDA receptor", "value": "NMDA receptor activity at a low level"}, {"measurement": "covering of scratch wound area", "setting": "HUVECs", "value": "covered the wound area"}, {"measurement": "increase in intracellular calcium level", "setting": "LPA4 receptor", "value": "61.6 ± 11.8", "unit": "µM"}]}
